Where no end group is shown, it is not given here. [ ]: non-standard residue; d: D form. 5‑Cl‑benzothiazol‑2‑yl side chain = not defined here; 6‑Cl‑benzothiazol‑2‑yl side chain = not defined here; Phe(3-CF3) = N[C@@H](Cc1cccc(C(F)(F)F)c1)C(=O)O; Phe(3,5-F2) = N[C@@H](Cc1cc(F)cc(F)c1)C(=O)O; Phe(3-CN) = N#Cc1cccc(C[C@H](N)C(=O)O)c1; Phe(3-Cl) = N[C@@H](Cc1cccc(Cl)c1)C(=O)O; Phe(4-Cl) = N[C@@H](Cc1ccc(Cl)cc1)C(=O)O; Phe(2-Cl) = N[C@@H](Cc1ccccc1Cl)C(=O)O; 2Nal = N[C@@H](Cc1ccc2ccccc2c1)C(=O)O; Phe(2-F) = N[C@@H](Cc1ccccc1F)C(=O)O; hPhe = N[C@@H](CCc1ccccc1)C(=O)O

The target in this test is human DCN1 (residues 58–259), N-terminal His6 tag (human, UniProt Q96GG9 58-259). As to the kind of experiment: FP.
Sequence of human DCN1 (residues 58–259), N-terminal His6 tag (Q96GG9 58-259): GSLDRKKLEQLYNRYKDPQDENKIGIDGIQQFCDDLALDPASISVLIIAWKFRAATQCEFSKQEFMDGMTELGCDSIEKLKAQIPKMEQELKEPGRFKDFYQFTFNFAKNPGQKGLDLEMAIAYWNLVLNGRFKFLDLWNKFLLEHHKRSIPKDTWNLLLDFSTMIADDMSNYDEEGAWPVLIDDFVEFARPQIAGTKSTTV
On to MIKLFSLKQQK [UBC12 peptide 2 (peptide 1 without Lys12)], for which the Ki amounted to 2.4 µM.

For the molecule [6‑Cl‑benzothiazol‑2‑yl side chain]IKL (not fully specified; reading uncertain) [compound 26 (24 with 6-Cl on the benzothiazol-2-yl)], the affinity, expressed as Ki, was 0.034 µM.

The molecule MIKLFSLK [UBC12 peptide 5] came in with a Ki of 9.2 µM.

MIKLFSLKQQ [UBC12 peptide 3] returned a Ki of 6 µM.

The molecule MIKLF [UBC12 peptide 8] showed a Ki of 111 µM. This Ki lies about 18-fold higher than the previous one.

The molecule [Phe(3,5-F2)]IKL [analog of 11 with 3,5-di-F substitution of the phenyl] yielded a Ki of 82 µM.

As for [Phe(2-F)]IKL [analog of 11 with o-F substitution of the phenyl], affinity was put at a Ki of 125 µM.

YIKL [analog of 11 with p-OH substitution of the phenyl] returned a Ki of 386 µM.

MIK [UBC12 tripeptide (10)] displayed a Ki of more than 1000 µM.

With [2Nal]IKL [compound 23 (11 with the phenyl replaced by naphthalen-2-yl)], the affinity corresponds to a Ki of 3.8 µM.

Molecule [Phe(2-Cl)]IKL [compound 13 (11 with Cl at the ortho position of the phenyl ring)] came in with a Ki of 143 µM. This Ki is about 38-fold higher than that of the molecule before.

In turn, FIKL [compound 11 (tetrapeptide 9 with Met1 replaced by phenylalanine)] came in with a Ki of 41 µM.

Turning to [5‑Cl‑benzothiazol‑2‑yl side chain]IKL (not fully specified; reading uncertain) [compound 25 (24 with 5-Cl on the benzothiazol-2-yl)], the Ki is 2.5 µM. This Ki lies about 16-fold lower than the previous one.

Take [hPhe]IKL [compound 12 (tetrapeptide 9 with Met1 replaced by homophenylalanine)]: the affinity corresponds to a Ki of 313 µM.

MIKLFSL [UBC12 seven-residue peptide (6)] yielded a Ki of 28 µM.

[Phe(3-Cl)]IKL [compound 14 (11 with Cl at the meta position of the phenyl ring)] gave a Ki of 45 µM.

MIKLFS [UBC12 peptide 7] displayed a Ki of 83 µM.

Molecule [Phe(4-Cl)]IKL [compound 15 (11 with Cl at the para position of the phenyl ring)] registered a Ki of 71 µM.

The molecule [Phe(3-CF3)]IKL [analog of 11 containing an m-CF3 substituted phenyl] gave a Ki of more than 1000 µM.

In the case of [Phe(3-CN)]IKL [analog of 11 containing an m-CN substituted phenyl], the Ki is more than 1000 µM.

MIKLFSLKQ [UBC12 peptide 4]: the inhibition constant (Ki) came to 6.5 µM.

The term Ki denotes the dissociation constant of the complex between target and ligand, obtained from inhibition or displacement.

These data come from article PMC5658359 (2017).
